{"source": "paper PMC11390915", "about": "“Histones and histone variant families in prokaryotes” (Nature Communications, 2024)", "molecular_target": "the molecule itself", "assay": "crystal structure; HTkC at 4.0 mg/mL in 50 mM Tris-HCl pH 7.0, 100 mM KCl, 10% glycerol; sitting drop vapor diffusion, reservoir 0.01 M trisodium citrate, 33% (w/v) PEG 6000; space group P2(1)2(1)2(1), 1.84 Å; four monomers in the asymmetric unit", "data": [{"protein": "face-to-face (FtF) histone from Thermococcus kodakarensis (HTkC) (natural protein, Face-to-face (FtF) histone HTkC of Thermococcus kodakarensis, product of gene TK1040; synthesized gene cloned into pET30b (plasmid pRD503); The purification used heat, heparin and SEC only, so the protein is probably untagged (surmised); Oligonucleotides for cloning are in the Supplementary Information; also called FtF histone HTkC; TK1040; source: E. coli BL21(DE3)pLysS, purified (heating at 70 …)) MAEMLVKSKVKEFVKSVDPEMRVSPEFYDALEAEVKALVEKAIKRAQAEGRKTLYARHV", "values": [{"measurement": "stoichiometry N", "value": 4}]}]}
